# B1: Azoarcus group I ribozyme (parent)
# chain: GUGCCUUGCGCCGGGAAACCACGCAAGGGAUGGUGUCAAAUUCGGCGAAACCUAAGCGCCCGCCCGGGCGUAUGGCAACGCCGAGCCAAGCUUCGGCGCCUGCGCCGAUGAAGGUGUAGAGACUAGACGGCACCCACCUAAGGCAAACGCUAUGGUGAAGGCAUAGUCCAGGGAGUGGCGAAAGUCACACAAACCGG
# Variants of: B1
# Assay: reverse-splicing fitness (ratio to wild type); higher = more active; in vitro selection; Mg2+ level not given
# Outline: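 An in vitro group I ribozyme library with randomized positions was T7-transcribed and gel-purified. In triplicate, 10 pmol RNA in EPPS pH 7.5 was reacted with 50 pmoles of a 30-nt RNA substrate for 1 h at 37 °C across several added MgCl2 levels (1–48 mM), then stopped with EDTA. Products were reverse transcribed from a substrate-complementary primer, PCR-amplified and sequenced (HiSeq 4000). Fitness is a variant's read proportion after selection over that before, normalised to wild type.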
row,Variant,reverse-splicing fitness
1,GUGCCUUGCGCCGGGAAACCACGCAAGGGAUGGUGUCAAAUUCGGCGAAACCUAAGCGCCCGCCCGGGCGUAUGGCAACGCCGAGCCAAGCUUCGGCGCCUGCGCCGAUGCAGGUGUAGCGACUAGACGGCACCCACCUAAGGCGAACGUUAUGGUGAAGGCAUAGUCGAGGGAGAGGCGAAAGUCACACAAACCGG,0.0118
2,GUGCCUUGCGCCGGGAAACCACGCAAGGGAUGGUGUCAAAUUCGGCGAAACCUAAGCGCCCGCCCGGGCGUAUGGCAACGCCGAGCCAAGCUUCGGCGCCUGCGCCGAUGCAGGUGUAGCGACUAGACGGCACCCACCUAAGGCGAACGUUAUGGUGAAGGCAUAGUCGAGGGAGCGGCGAAAGUCACACAAACCGG,0.0158
3,GUGCCUUGCGCCGGGAAACCACGCAAGGGAUGGUGUCAAAUUCGGCGAAACCUAAGCGCCCGCCCGGGCGUAUGGCAACGCCGAGCCAAGCUUCGGCGCCUGCGCCGAUGCAGGUGUAGCGACUAGACGGCACCCACCUAAGGCGAACGUUAUGGUGAAGGCAUAGUCGAGGGAGGGGCGAAAGUCACACAAACCGG,0.00574
4,GUGCCUUGCGCCGGGAAACCACGCAAGGGAUGGUGUCAAAUUCGGCGAAACCUAAGCGCCCGCCCGGGCGUAUGGCAACGCCGAGCCAAGCUUCGGCGCCUGCGCCGAUGCAGGUGUAGCGACUAGACGGCACCCACCUAAGGCGAACGUUAUGGUGAAGGCAUAGUCUAGGGAGUGGCGAAAGUCACACAAACCGG,0.147
5,GUGCCUUGCGCCGGGAAACCACGCAAGGGAUGGUGUCAAAUUCGGCGAAACCUAAGCGCCCGCCCGGGCGUAUGGCAACGCCGAGCCAAGCUUCGGCGCCUGCGCCGAUGCAGGUGUAGCGACUAGACGGCACCCACCUAAGGCGAACGUUAUGGUGAAGGCAUAGUCUAGGGAGAGGCGAAAGUCACACAAACCGG,0.0283
6,GUGCCUUGCGCCGGGAAACCACGCAAGGGAUGGUGUCAAAUUCGGCGAAACCUAAGCGCCCGCCCGGGCGUAUGGCAACGCCGAGCCAAGCUUCGGCGCCUGCGCCGAUGCAGGUGUAGCGACUAGACGGCACCCACCUAAGGCGAACGUUAUGGUGAAGGCAUAGUCUAGGGAGCGGCGAAAGUCACACAAACCGG,0.0438
7,GUGCCUUGCGCCGGGAAACCACGCAAGGGAUGGUGUCAAAUUCGGCGAAACCUAAGCGCCCGCCCGGGCGUAUGGCAACGCCGAGCCAAGCUUCGGCGCCUGCGCCGAUGCAGGUGUAGCGACUAGACGGCACCCACCUAAGGCGAACGUUAUGGUGAAGGCAUAGUCUAGGGAGGGGCGAAAGUCACACAAACCGG,0.00486
8,GUGCCUUGCGCCGGGAAACCACGCAAGGGAUGGUGUCAAAUUCGGCGAAACCUAAGCGCCCGCCCGGGCGUAUGGCAACGCCGAGCCAAGCUUCGGCGCCUGCGCCGAUGCAGGUGUAGCGACUAGACGGCACCCACCUAAGGCGAACGUUAUGGUGAAGGCAUAGUCCAGGGAGAGGCGAAAGUCACACAAACCGG,0.159
9,GUGCCUUGCGCCGGGAAACCACGCAAGGGAUGGUGUCAAAUUCGGCGAAACCUAAGCGCCCGCCCGGGCGUAUGGCAACGCCGAGCCAAGCUUCGGCGCCUGCGCCGAUGCAGGUGUAGCGACUAGACGGCACCCACCUAAGGCGAACGUUAUGGUGAAGGCAUAGUCCAGGGAGCGGCGAAAGUCACACAAACCGG,0.18
10,GUGCCUUGCGCCGGGAAACCACGCAAGGGAUGGUGUCAAAUUCGGCGAAACCUAAGCGCCCGCCCGGGCGUAUGGCAACGCCGAGCCAAGCUUCGGCGCCUGCGCCGAUGCAGGUGUAGCGACUAGACGGCACCCACCUAAGGCGAACGUUAUGGUGAAGGCAUAGUCCAGGGAGGGGCGAAAGUCACACAAACCGG,0.0297
11,GUGCCUUGCGCCGGGAAACCACGCAAGGGAUGGUGUCAAAUUCGGCGAAACCUAAGCGCCCGCCCGGGCGUAUGGCAACGCCGAGCCAAGCUUCGGCGCCUGCGCCGAUGCAGGUGUAGCGACUAGACGGCACCCACCUAAGGCGAACGCUAUGGUGAAGGCAUAGUCAAGGGAGUGGCGAAAGUCACACAAACCGG,0.0109
12,GUGCCUUGCGCCGGGAAACCACGCAAGGGAUGGUGUCAAAUUCGGCGAAACCUAAGCGCCCGCCCGGGCGUAUGGCAACGCCGAGCCAAGCUUCGGCGCCUGCGCCGAUGCAGGUGUAGCGACUAGACGGCACCCACCUAAGGCGAACGCUAUGGUGAAGGCAUAGUCAAGGGAGAGGCGAAAGUCACACAAACCGG,0.0222
13,GUGCCUUGCGCCGGGAAACCACGCAAGGGAUGGUGUCAAAUUCGGCGAAACCUAAGCGCCCGCCCGGGCGUAUGGCAACGCCGAGCCAAGCUUCGGCGCCUGCGCCGAUGCAGGUGUAGCGACUAGACGGCACCCACCUAAGGCGAACGCUAUGGUGAAGGCAUAGUCAAGGGAGCGGCGAAAGUCACACAAACCGG,0.0284
14,GUGCCUUGCGCCGGGAAACCACGCAAGGGAUGGUGUCAAAUUCGGCGAAACCUAAGCGCCCGCCCGGGCGUAUGGCAACGCCGAGCCAAGCUUCGGCGCCUGCGCCGAUGCAGGUGUAGCGACUAGACGGCACCCACCUAAGGCGAACGCUAUGGUGAAGGCAUAGUCAAGGGAGGGGCGAAAGUCACACAAACCGG,0.0054
15,GUGCCUUGCGCCGGGAAACCACGCAAGGGAUGGUGUCAAAUUCGGCGAAACCUAAGCGCCCGCCCGGGCGUAUGGCAACGCCGAGCCAAGCUUCGGCGCCUGCGCCGAUGCAGGUGUAGCGACUAGACGGCACCCACCUAAGGCGAACGCUAUGGUGAAGGCAUAGUCGAGGGAGUGGCGAAAGUCACACAAACCGG,0.0102

# — the RNAGym collection of RNA variant scans (doi:10.1093/molbev/msab373)
